Values quoted from earlier work, collected in PMC10544997.

Biological target: FcγRIIa (Homo sapiens) (UniProt P12318)
Sequence (P12318 34-317): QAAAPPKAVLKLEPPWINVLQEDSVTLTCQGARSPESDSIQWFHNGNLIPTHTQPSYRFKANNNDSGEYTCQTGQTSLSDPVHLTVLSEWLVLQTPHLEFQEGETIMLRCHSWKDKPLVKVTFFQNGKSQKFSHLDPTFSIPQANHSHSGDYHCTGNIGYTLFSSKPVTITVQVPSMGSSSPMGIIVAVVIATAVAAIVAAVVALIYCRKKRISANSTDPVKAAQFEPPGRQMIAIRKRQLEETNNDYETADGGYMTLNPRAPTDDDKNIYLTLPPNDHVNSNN

Substance: IgG1 Fc (from UniProt P01857)
- Kd: 1000 nM
